Reference: patent US20230381328A1, “COMPOUND FOR THE PREVENTION OR TREATMENT OF MYASTHENIA GRAVIS” (ABLEVIA BIOTECH GMBH, priority 2020, published 2023)
One block for each binder: values may come before it. Where no end group is shown, it is not given here.

Molecular target: monoclonal antibody mAB 198
Experiment: peptide microarray, fluorescence, cyclic peptide

B1: RINPADY, cyclic mimotope (peptide)
peptide: RINPADY
modifications: also: cyclic peptide, ring type and places not given here
relative signal [%]: 28.9%

B2: …, cyclic mimotope (peptide)
peptide: VRLRRNPAD
modifications: also: cyclic peptide, mode of cyclisation not given here
relative signal [%]: 14.7%

B3: …, cyclic mimotope (peptide)
peptide: DVRLRGNPADY
modifications: also: cyclic peptide, mode of cyclisation not given here
relative signal [%]: 25%

B4: …, cyclic mimotope (peptide)
peptide: SLRINPADY
modifications: also: cyclic peptide, mode of cyclisation not given here
relative signal [%]: 28%

B5: …, cyclic mimotope (peptide)
peptide: DVRLRINPADY
modifications: also: cyclic peptide, mode of cyclisation not given here
relative signal [%]: 31.4%

B6: …, cyclic mimotope (peptide)
peptide: GGSLRVNPADY
modifications: also: cyclic peptide, mode of cyclisation not given here
relative signal [%]: 22.5%

B7: …, cyclic mimotope (peptide)
peptide: GSLRWNPADYR
modifications: also: cyclic peptide, mode of cyclisation not given here
relative signal [%]: 16.2%

B8: RYNPADY, cyclic mimotope (peptide)
peptide: RYNPADY
modifications: also: cyclic peptide, ring type and places not given here
relative signal [%]: 20.2%

B9: WNPADYP, cyclic mimotope (peptide)
peptide: WNPADYP
modifications: also: cyclic peptide, mode of cyclisation not given here
relative signal [%]: 21.1%

B10: …, cyclic mimotope (peptide)
peptide: SLRYNPADY
modifications: also: cyclic peptide, mode of cyclisation not given here
relative signal [%]: 12.2%

B11: …, cyclic mimotope (peptide)
peptide: SLRLNPADY
modifications: also: cyclic peptide, mode of cyclisation not given here
relative signal [%]: 21.8%

B12: …, cyclic mimotope (peptide)
peptide: VRLRVNPADYG
modifications: also: cyclic peptide, mode of cyclisation not given here
relative signal [%]: 13.4%

B13: …, cyclic mimotope (peptide)
peptide: GNPADYGGI
modifications: also: cyclic peptide, mode of cyclisation not given here
relative signal [%]: 13.7%

B14: …, cyclic mimotope (peptide)
peptide: LRINPADYG
modifications: also: cyclic peptide, mode of cyclisation not given here
relative signal [%]: 22.8%

B15: …, cyclic mimotope (peptide)
peptide: GSLRWNPADYP
modifications: also: cyclic peptide, mode of cyclisation not given here
relative signal [%]: 12.4%

B16: …, cyclic mimotope (peptide)
peptide: LRLNPADYG
modifications: also: cyclic peptide, mode of cyclisation not given here
relative signal [%]: 28.6%

B17: …, cyclic mimotope (peptide)
peptide: SLRVNPADY
modifications: also: cyclic peptide, mode of cyclisation not given here
relative signal [%]: 26.5%

B18: …, cyclic mimotope (peptide)
peptide: GGSLRFNPADY
modifications: also: cyclic peptide, mode of cyclisation not given here
relative signal [%]: 14.5%

B19: …, cyclic mimotope (peptide)
peptide: RGNPADYGG
modifications: also: cyclic peptide, ring type and places not given here
relative signal [%]: 22.2%

B20: NPADYGR, cyclic mimotope (peptide)
peptide: NPADYGR
modifications: also: cyclic peptide, ring type and places not given here
relative signal [%]: 19.5%

B21: NPADYGD, cyclic mimotope (peptide)
peptide: NPADYGD
modifications: also: cyclic peptide, mode of cyclisation not given here
relative signal [%]: 12.6%

B24: RGNPADY, cyclic mimotope (peptide)
peptide: RGNPADY
modifications: also: cyclic peptide, ring type and places not given here
relative signal [%]: 23.8%

B26: RRNPADY, cyclic mimotope (peptide)
peptide: RRNPADY
modifications: also: cyclic peptide, ring type and places not given here
relative signal [%]: 23.5%

B29: NPADYGH, cyclic mimotope (peptide)
peptide: NPADYGH
modifications: also: cyclic peptide, mode of cyclisation not given here
relative signal [%]: 15.8%

B31: LRRNPAD, cyclic mimotope (peptide)
peptide: LRRNPAD
modifications: also: cyclic peptide, mode of cyclisation not given here
relative signal [%]: 28.2%

B33: WNPADYR, cyclic mimotope (peptide)
peptide: WNPADYR
modifications: also: cyclic peptide, mode of cyclisation not given here
relative signal [%]: 24.9%

B37: NPADYRG, cyclic mimotope (peptide)
peptide: NPADYRG
modifications: also: cyclic peptide, ring type and places not given here
relative signal [%]: 27.4%

B38: RPNPADY, cyclic mimotope (peptide)
peptide: RPNPADY
modifications: also: cyclic peptide, ring type and places not given here
relative signal [%]: 15.6%

B42: RVNPADY, cyclic mimotope (peptide)
peptide: RVNPADY
modifications: also: cyclic peptide, ring type and places not given here
relative signal [%]: 18.7%

B43: RTNPADY, cyclic mimotope (peptide)
peptide: RTNPADY
modifications: also: cyclic peptide, ring type and places not given here
relative signal [%]: 14.6%

B44: VNPADYG, cyclic mimotope (peptide)
peptide: VNPADYG
modifications: also: cyclic peptide, mode of cyclisation not given here
relative signal [%]: 12.5%

Other lines, results leading:

relative signal [%]: 30.2%
B22: …, cyclic mimotope (peptide)
peptide: DVRLRVNPADY
modifications: also: cyclic peptide, mode of cyclisation not given here

relative signal [%]: 12.5%
B23: …, cyclic mimotope (peptide)
peptide: GGGSLRRNPAD
modifications: also: cyclic peptide, mode of cyclisation not given here

relative signal [%]: 21.3%
B25: …, cyclic mimotope (peptide)
peptide: DVRLRPNPADY
modifications: also: cyclic peptide, mode of cyclisation not given here

relative signal [%]: 21.3%
B27: …, cyclic mimotope (peptide)
peptide: RLRFNPADY
modifications: also: cyclic peptide, ring type and places not given here

relative signal [%]: 15.4%
B28: …, cyclic mimotope (peptide)
peptide: SLRGNPADY
modifications: also: cyclic peptide, ring type and places not given here

relative signal [%]: 23.4%
B30: …, cyclic mimotope (peptide)
peptide: LRRNPADYG
modifications: also: cyclic peptide, mode of cyclisation not given here

relative signal [%]: 23.1%
B32: …, cyclic mimotope (peptide)
peptide: RINPADYGG
modifications: also: cyclic peptide, ring type and places not given here

relative signal [%]: 19.6%
B34: …, cyclic mimotope (peptide)
peptide: GGSLRGNPADY
modifications: also: cyclic peptide, mode of cyclisation not given here

relative signal [%]: 13.6%
B35: …, cyclic mimotope (peptide)
peptide: SLRFNPADY
modifications: also: cyclic peptide, ring type and places not given here

relative signal [%]: 13.1%
B36: …, cyclic mimotope (peptide)
peptide: LRWNPADYP
modifications: also: cyclic peptide, mode of cyclisation not given here

relative signal [%]: 12.4%
B39: …, cyclic mimotope (peptide)
peptide: RPRWNPADY
modifications: also: cyclic peptide, ring type and places not given here

relative signal [%]: 27.7%
B40: …, cyclic mimotope (peptide)
peptide: DVRLRFNPADY
modifications: also: cyclic peptide, mode of cyclisation not given here

relative signal [%]: 25.4%
B41: …, cyclic mimotope (peptide)
peptide: GGSLRINPADY
modifications: also: cyclic peptide, mode of cyclisation not given here

relative signal [%]: 25.5%
B45: …, cyclic mimotope (peptide)
peptide: RLRINPADY
modifications: also: cyclic peptide, ring type and places not given here

relative signal [%]: 24.5%
B46: …, cyclic mimotope (peptide)
peptide: RLRYNPADY
modifications: also: cyclic peptide, ring type and places not given here

relative signal [%]: 13.7%
B47: …, cyclic mimotope (peptide)
peptide: RLYWNPADY
modifications: also: cyclic peptide, ring type and places not given here
